# Values joined by “and” are separate entries in the source; they are usually repeats but may differ in a detail not shown here. Identical values can stand only once.
# Assays:
# Test in all cases: fluorescence anisotropy
# [1] = tested on: eIF4A; conditions: 20 mM HEPES-KOH pH 7.6, 200 mM KCl, 1 mM MgCl2, 25 ± 0.5 °C; 10 nM labeled RNA; co-factors 1 µM eIF4A, 1 µM eIF4E, 1 mM ATP (2.5 µM proteins also stated)
# [2] = tested on: eIF4B (Homo sapiens); conditions: 20 mM HEPES-KOH pH 7.6, 200 mM KCl, 1 mM MgCl2, 25 ± 0.5 °C; 10 nM labeled RNA; co-factors 1 µM eIF4A, 1 µM eIF4E, 1 mM ATP (2.5 µM proteins also stated)
# [3] = tested on: eIF4GI557-1599 (Homo sapiens); conditions: 20 mM HEPES-KOH pH 7.6, 200 mM KCl, 1 mM MgCl2, 25 ± 0.5 °C; 10 nM labeled RNA; co-factors 1 µM eIF4A, 1 µM eIF4E, 1 mM ATP (2.5 µM proteins also stated)
# [4] = tested on: eIF4GI557-1599;eIF4A (Homo sapiens;Homo sapiens?); conditions: 20 mM HEPES-KOH pH 7.6, 200 mM KCl, 1 mM MgCl2, 25 ± 0.5 °C, 10 nM labeled RNA, co-factors 1 µM eIF4A, 1 µM eIF4E, 1 mM ATP (2.5 µM proteins also stated)
# [5] = tested on: eIF4GI557-1599;eIF4A;eIF4B (Homo sapiens;;Homo sapiens); conditions: 20 mM HEPES-KOH pH 7.6, 200 mM KCl, 1 mM MgCl2, 25 ± 0.5 °C, 10 nM labeled RNA, co-factors 1 µM eIF4A, 1 µM eIF4E, 1 mM ATP (2.5 µM proteins also stated)
# [6] = tested on: eIF4GI557-1599;eIF4A;eIF4E (Homo sapiens;;Homo sapiens); conditions: 20 mM HEPES-KOH pH 7.6, 200 mM KCl, 1 mM MgCl2, 25 ± 0.5 °C, 10 nM labeled RNA, co-factors 1 µM eIF4A, 1 µM eIF4E, 1 mM ATP (2.5 µM proteins also stated)
# [7] = tested on: eIF4GI557-1599;eIF4A;eIF4E;eIF4B (Homo sapiens;Homo sapiens?;Homo sapiens;Homo sapiens); conditions: 20 mM HEPES-KOH pH 7.6, 200 mM KCl, 1 mM MgCl2, 25 ± 0.5 °C; 10 nM labeled RNA; co-factors 1 µM eIF4A, 1 µM eIF4E, 1 mM ATP (2.5 µM proteins also stated)
# [8] = tested on: eIF4GI557-1599;eIF4E (Homo sapiens;Homo sapiens); conditions: 20 mM HEPES-KOH pH 7.6, 200 mM KCl, 1 mM MgCl2, 25 ± 0.5 °C; 10 nM labeled RNA; co-factors 1 µM eIF4A, 1 µM eIF4E, 1 mM ATP (2.5 µM proteins also stated)
# [9] = tested on: eIF4GI682-1599 (Homo sapiens); conditions: 20 mM HEPES-KOH pH 7.6, 200 mM KCl, 1 mM MgCl2, 25 ± 0.5 °C; 10 nM labeled RNA; co-factors 1 µM eIF4A, 1 µM eIF4E, 1 mM ATP (2.5 µM proteins also stated)
# [10] = tested on: eIF4GI682-1599;eIF4A (Homo sapiens;Homo sapiens?); conditions: 20 mM HEPES-KOH pH 7.6, 200 mM KCl, 1 mM MgCl2, 25 ± 0.5 °C; 10 nM labeled RNA; co-factors 1 µM eIF4A, 1 µM eIF4E, 1 mM ATP (2.5 µM proteins also stated)
# [11] = tested on: eIF4GI682-1599;eIF4A;eIF4E (Homo sapiens;;Homo sapiens); conditions: 20 mM HEPES-KOH pH 7.6, 200 mM KCl, 1 mM MgCl2, 25 ± 0.5 °C; 10 nM labeled RNA; co-factors 1 µM eIF4A, 1 µM eIF4E, 1 mM ATP (2.5 µM proteins also stated)
# [12] = tested on: eIF4GI682-1599;eIF4E (Homo sapiens;Homo sapiens); conditions: 20 mM HEPES-KOH pH 7.6, 200 mM KCl, 1 mM MgCl2, 25 ± 0.5 °C; 10 nM labeled RNA; co-factors 1 µM eIF4A, 1 µM eIF4E, 1 mM ATP (2.5 µM proteins also stated)
substance,measurement,setting,value
FGF-9 5'UTR (uncapped),Kd,[1],667 nM and 115 nM
same,Kd,[2],38 nM
same,Kd,[3],14 nM
same,Kd,[4],14 nM
same,Kd,[4]; no nucleotide,16 nM
same,Kd,[5],19 nM
same,Kd,[5]; AMP-PNP,20 nM
same,Kd,[5]; no nucleotide,24 nM
same,Kd,[6],18 nM
same,Kd,[6]; ADP,13 nM
same,Kd,[6]; no nucleotide,15 nM
same,Kd,[7],14 nM
same,Kd,[8],16 nM
same,Kd,[9],120 nM
same,Kd,[10],26 nM and 16 nM
same,Kd,[11],20 nM and 30 nM
same,Kd,[12],110 nM
HIF-1α 5'UTR (uncapped),Kd,[1],252 nM and 28 nM
same,Kd,[2],54 nM
same,Kd,[3],50 nM
same,Kd,[4],13 nM
same,Kd,[4]; no nucleotide,17 nM
same,Kd,[5],17 nM
same,Kd,[5]; AMP-PNP,14 nM
same,Kd,[5]; no nucleotide,12 nM
same,Kd,[6],22 nM
same,Kd,[6]; ADP,26 nM
same,Kd,[6]; no nucleotide,14 nM
same,Kd,[7],19 nM
same,Kd,[8],15 nM
same,Kd,[9],139 nM
same,Kd,[10],17 nM and 20 nM
same,Kd,[11],21 nM and 16 nM
same,Kd,[12],142 nM

# Source: article PMC11570956
